Laboratory results taken from patent publication US20230043289A1 (AC IMMUNE, published 2023).
Positions count from the first letter of the chain named. In names and notes the source's numbering stands. Where no end group is shown, it is not given here.

T1: MAPT(10-24) (human, also: biotinylated (position not given here))
T1 construct: also called Tau fragment 10-24
T1 peptide: VMEDHAGTYGLGDRK

T2: Tau fragment 19-33 (human, UniProt P10636-8 19-33)
T2 construct: range 19-33
T2 peptide (looked up): GLGDRKDQGGYTMHQ

T3: Tau fragment 1-15 (human, UniProt P10636-8 1-15)
T3 construct: range 1-15
T3 peptide (looked up): MAEPRQEFEVMEDHA

T4: Tau fragment 28-42 (human, UniProt P10636-8 28-42)
T4 construct: range 28-42
T4 peptide (looked up): GYTMHQDQEGDTDAG

T5: Tau fragment 37-51 (human, UniProt P10636-8 37-51)
T5 construct: range 37-51
T5 peptide (looked up): GDTDAGLKESPLQTP

B1: hu37D3-H9.v5 hIgG4.S228P, stressed (t = 2 weeks) (antibody, V domains shown)
VH: EVQLVESGGGLVQPGGSLRLSCAASGLIFRSYGMSWVRQAPGKGLEWVATINSGGTYTYYPDSVKGRFTISRDNSKNTLYLQMNSLRAEDTAVYYCANSYSGAMDYWGQGTLVTVSS
VL: EDVLTQTPLSLPVTPGQPASISCRSSQSIVHSNGNTYFEWYLQKPGQSPQLLIYKVSNRFSGVPDRFSGSGSGTDFTLKISRVEAEDVGVYYCFQGSLVPWTFGQGTKVEIK
modifications: light chain N28 (Kabat) partly deamidated: 43.1% increase after 2 weeks at 40 C in PBS pH 7.4
notes: human IgG4 with S228P, kappa; thermally stressed sample, a mixed population
B2: hu37D3-H9.v76 (antibody, V domains shown)
VH: B1 VH with Y57R
VL: B1 VL with E1D, V3L, F38L, S97T
B3: hu37D3-H9.v93 (antibody, V domains shown)
VH: B1 VH with Y57R
VL: EDLLTQSPSSLSASVGDRVTITCRSSQSIVHSNGNTYLEWYQQKPGKSPKLLIYKVSNRFSGVPSRFSGSGSGTDFTLTISSLQPEDFATYYCFQGTLVPWTFGQGTKVEIK
B4: hu37D3-H9.v83 (antibody, V domains shown)
VH: B1 VH with V5L, Y57R
VL: B1 VL with E1D, V3L, T7S, P15L, F38L, L42Q, K44R, Q50R, S97T
B5: 89F4-A1 (antibody, IgG2a, V domains shown)
VH: EVQLVESGGGLVQPKGSLKLSCAASGFTFNTYAMNWVRQAPGKGLEWVARIRSKSNNYAAYFADSVKDRFTISRDDSQTMLYLQMNNLKSEDTAMYYCVSGGNYVPFAYWGQGTLVTVSA
VL: NIMMTQSPSSLAVSAGEKVTMSCKSSQSVFYSSEQRNYLAWYQQKPGQSPKLLISWASTRESGVPDRFTGSGSGTDFTLTISSVQGEDLAVYYCHQYLSSFTFGSGTKLEIK
notes: Ex.2 hybridoma supernatant; Ex.3 recombinant mIgG2a/kappa
B6: 94B2-C1 (antibody, IgG2a, V domains shown)
VH: EVQLQQSGPELVKPGASMKISCKASGYSLTGYTMNWVKQSHGKNLEWIGLISPYNGVTSYNQKFKGKATLTVDKSSNTAYMELLSLTFEDSAVYYCARQGAYWGQGTLVTVSA
VL: not shown
notes: as for B5
B7: 123E9-A1 (antibody, IgG2a, V domains shown)
VH: EVQLQQSGPELVKPGASVKMSCKASGYTFTDYYMKWVKQSHGKSLEWIGDIDPNNGGTSYNQKFKGKATLTVDKSSSTAYMQLNSLTSEDSAVYYCARSAGFGDSFSFWGLGTLVTVSA
VL: DVLMTQTPLSLPVSLGDQASISCRSSQSIVHSNGNTYLEWYLQKPGQSPKLLIYKVSNRFSGVPDRFSGSGSGTDFTLKISRVEAEDLGFYYCFQGSHVPPTFGGGTKLEIK
notes: as for B5
B8: 19H6-F7 (antibody, IgG2a, V domains shown)
VH: EVQLVESGGDLVKPGGSLKLSCAASGFTFSSYGMSWVRQTPDKRLEWVATISSGGTYTYYPDSVKGRFTISRDNAKNTLYLQMSSLKSEDTAMYYCAPSYDGAMDYWGQGTSVTVSS
VL: B7 VL with F90V, H98L, P101W
notes: as for B5
B9: 54C1-H11 (antibody, IgG2a, V domains shown)
VH: B8 VH with L20V, A23V, S30R, E46D, T56N, P98S, D101S
VL: B7 VL with V2T, L3V, T7S, K55T, F90V, P101W
notes: as for B5
B10: 3A4-H4 (antibody, IgG2a, V domains shown)
VH: B8 VH with Y95F, P98T
VL: B7 VL with S28N, F90V, S97T, H98L, P101W
notes: as for B5

What was measured:
[1] = biological target: T6, Human Tau monomer (recombinant 2N4R isoform, amino acids 2-441) (human, UniProt P10636-8 2-441); assay: SPR 25C, hIgG captured, Tau monomer analyte
T6 construct: range 2-441; also called monomeric human Tau; human monomer Tau protein

[2] = biological target: T6, Human Tau monomer (recombinant 2N4R …); assay: SPR, hIgG captured, Tau monomer 3.1-100 nM
Procedure: To assess the impact of N²⁸ deamidation on the affinity for human Tau, it was desirable to obtain two samples with widely separated N²⁸ deamidation status. Hu37D3-H9.v5 hIgG4.S228P was incubated at 40° C. for two weeks at a concentration of 1 mg/ml in Phosphate Buffered Saline, pH 7.4. Deamidation of the N²⁸G²⁹ motif was measured using LC-MS/MS. […] The stressed and unstressed antibodies were analyzed for Tau binding by surface plasmon resonance (Biacore) using the GE Biacore human IgG capture kit and a Series S CM5 chip. The hIgG were diluted to 2 μg/ml in 10 mM HEPES pH7.4, 150 mM NaCl, 0.05% Tween 20 (running buffer, HBSP) and captured at a flow rate of 10 μl/min for 15 seconds (t0 sample) or 17 seconds (t2 sample). […] Between cycles the surface was regenerated using a 30 second injection of 3M Magnesium Chloride at 10 μl/min. A 1:1 binding model was fitted to the data using instrument defaults, including local fitting of the “RI” parameter.

[3] = biological target: T6, Human Tau monomer (recombinant 2N4R …); assay: SPR 37C, hIgG captured, Tau monomer 0.1-33.3 nM
Procedure: Affinity for human and cynomolgus monkey Tau was measured at 37° C. using a Biacore T200 instrument, the GE Biacore human IgG capture kit and a Series S CM5 Sensor Chip. Antibodies were diluted to 1 μg/ml in running buffer HBS-EP (10 mM HEPES pH7.4, 150 mM NaCl, 1 mM EDTA, 0.05% Tween 20) and captured at a flow rate of 10 μl/min for 15 seconds. Data was collected for the binding of human and cynomolgus Tau monomer, each of which was injected at 0, 0.1, 0.4, 1.2, 3.7, 11.1, and 33.3 nM, using a flow rate of 30 μl/min, a contact time of 300 s, and a dissociation time of 900 s. Between cycles, the surface was regenerated with 3M magnesium chloride. Data was fit to a 1:1 binding model using BIAEvaluation software.

MAPT(10-24) = biological target: T1, MAPT(10-24); assay: ELISA on Tau 15-mer peptides
Tau fragment 19-33 = biological target: T2, Tau fragment 19-33; assay: ELISA on Tau 15-mer peptides
Tau fragment 1-15 = biological target: T3, Tau fragment 1-15; assay: ELISA on Tau 15-mer peptides
Tau fragment 28-42 = biological target: T4, Tau fragment 28-42; assay: ELISA on Tau 15-mer peptides
Tau fragment 37-51 = biological target: T5, Tau fragment 37-51; assay: ELISA on Tau 15-mer peptides

T6 sequence (P10636 other isoform, or with tags, fused parts or gaps limits assumed): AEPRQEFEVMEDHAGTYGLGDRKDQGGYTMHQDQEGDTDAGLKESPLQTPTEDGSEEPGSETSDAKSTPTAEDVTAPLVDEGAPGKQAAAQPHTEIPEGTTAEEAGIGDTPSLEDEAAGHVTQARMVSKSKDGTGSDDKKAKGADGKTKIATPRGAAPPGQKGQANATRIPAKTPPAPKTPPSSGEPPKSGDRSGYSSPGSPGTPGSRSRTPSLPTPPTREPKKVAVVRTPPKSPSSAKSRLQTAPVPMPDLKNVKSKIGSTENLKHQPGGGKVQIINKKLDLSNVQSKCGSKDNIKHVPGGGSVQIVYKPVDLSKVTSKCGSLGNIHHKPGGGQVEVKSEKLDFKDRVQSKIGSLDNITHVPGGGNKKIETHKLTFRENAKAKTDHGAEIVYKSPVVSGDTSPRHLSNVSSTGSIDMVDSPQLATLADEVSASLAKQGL

Row | Binder | Kd [3] [pM] | koff [3] [s⁻¹] | kon [3] [M⁻¹ s⁻¹] | binding result (Tau fragment 19-33) | binding result (Tau fragment 1-15) | binding result (Tau fragment 28-42) | binding result (Tau fragment 37-51) | also measured
1 | B1 | – | – | – | – | – | – | – | Kd [1]: 1500 pM; Kd [2]: 700 pM
2 | B2 | 100 | 0.000892 | 6.94e+06 | – | – | – | – | –
3 | B3 | 100 | 0.00102 | 6.89e+06 | – | – | – | – | –
4 | B4 | 100 | 0.000818 | 6.19e+06 | – | – | – | – | –
5 | B5 | – | – | – | no binding | no binding | – | – | binding result (MAPT(10-24)): no binding
6 | B6 | – | – | – | – | – | no binding | no binding | –
7 | B7 | – | – | – | – | no binding | – | no binding | binding result (MAPT(10-24)): no binding
8 | B8 | – | – | – | no binding | no binding | no binding | no binding | –
9 | B9 | – | – | – | no binding | no binding | no binding | no binding | –
10 | B10 | – | – | – | no binding | no binding | no binding | no binding | –
